Test results as given in article PMC5829645.

Tests used:
[1] = target: T1, BmILF (interleukin enhancer binding factor homolog) (Bombyx mori (Bm12 cell cDNA), UniProt A0A1U9WZ16 1-382); experiment: EMSA
T1 sequence: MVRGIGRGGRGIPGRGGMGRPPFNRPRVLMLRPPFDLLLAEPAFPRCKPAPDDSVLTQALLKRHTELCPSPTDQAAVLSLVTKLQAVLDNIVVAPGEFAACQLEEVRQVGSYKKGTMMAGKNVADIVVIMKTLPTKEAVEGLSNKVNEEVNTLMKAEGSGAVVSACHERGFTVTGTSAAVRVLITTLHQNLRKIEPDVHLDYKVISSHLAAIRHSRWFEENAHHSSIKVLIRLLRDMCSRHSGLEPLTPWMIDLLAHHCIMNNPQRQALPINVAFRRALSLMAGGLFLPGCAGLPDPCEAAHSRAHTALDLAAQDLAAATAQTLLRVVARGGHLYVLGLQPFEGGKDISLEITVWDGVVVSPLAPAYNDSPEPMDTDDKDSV

[2] = target: T1, BmILF (interleukin enhancer binding …); experiment: competition
[3] = target: T1, BmILF (interleukin enhancer binding …); experiment: EMSA; remark: listed apart in the source

B1: BmPOUM2 i-motif wild-type probe (structured_DNA)
DNA: TTGTTGCCCCGCCCCTCGGCCCCCTCGCGCCCCGCACTGG
binding result [1]: binds

B2: unlabeled wild-type i-motif cold probe (structured_DNA)
DNA: TTGTTGCCCCGCCCCTCGGCCCCCTCGCGCCCCGCACTGG
binding result [2]: binds

B3: BmPOUM2 i-motif mutant probe (ssDNA)
DNA: TTGTTGCACTGCTACTCGGCTCACTCGCGCATCGCACTGG
binding result [3]: no binding
